Target: Histidine-tagged rat N-WASP (rat, UniProt O08816 1-501)
Assay: pull-down

Histidine-tagged rat N-WASP, sequence (O08816 whole entry): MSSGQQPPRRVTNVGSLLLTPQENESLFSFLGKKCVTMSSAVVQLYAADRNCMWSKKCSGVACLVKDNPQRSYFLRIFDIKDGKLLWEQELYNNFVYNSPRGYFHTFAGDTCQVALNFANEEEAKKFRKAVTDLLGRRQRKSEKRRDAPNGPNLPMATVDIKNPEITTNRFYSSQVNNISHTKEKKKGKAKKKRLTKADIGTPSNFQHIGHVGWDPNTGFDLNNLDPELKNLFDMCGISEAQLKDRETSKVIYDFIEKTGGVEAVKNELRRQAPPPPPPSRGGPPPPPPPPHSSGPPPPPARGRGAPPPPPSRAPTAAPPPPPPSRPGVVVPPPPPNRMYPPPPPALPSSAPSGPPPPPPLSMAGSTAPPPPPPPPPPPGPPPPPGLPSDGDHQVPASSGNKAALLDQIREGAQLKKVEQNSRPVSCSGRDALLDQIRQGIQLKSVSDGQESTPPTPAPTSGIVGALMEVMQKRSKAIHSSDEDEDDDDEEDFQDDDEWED

B1: Recombinant VirG-α1 protein (Thr53–Arg759 of VirG polypeptide) (domain or fragment, S. flexneri, UniProt Q7BCK4 53-759, looked up)
chain: TPLSGTQELHFSEDNYEKLLTPVDGLSPLGAGEDGMDAWYITSSNPSHASRTKLRINSDIMISAGHGGAGDNNDGNSCGGNGGDSITGSDLSIINQGMILGGSGGSGADHNGDGGEAVTGDNLFIINGEIISGGHGGDSYSDSDGGNGGDAVTGVNLPIINKGTISGGNGGNNYGEGDGGNGGDAITGSSLSVINKGTFAGGNGGAAYGYGYDGYGGNAITGDNLSVINNGAILGGNGGHWGDAINGSNMTIANSGYIISGKEDDGTQNVAGNAIHITGGNNSLILHEGSVITGDVQVNNSSILKIINNDYTGTTPTIEGDLCAGDCTTVSLSGNKFTVSGDVSFGENSSLNLAGISSLEASGNMSFGNNVKVEAIINNWAQKDYKLLSADKGITGFSVSNISIINPLLTTGAIDYTKSYISDQNKLIYGLSWNDTDGDSHGEFNLKENAELTVSTILADNLSHHNINSWDGKSLTKSGEGTLILAEKNTYSGFTNINAGILKMGTVEAMTRTAGVIVNKGATLNFSGMNQTVNTLLNSGTVLINNINAPFLPDPVIVTGNMTLEKNGHVILNNSSSNVGQTYVQKGNWHGKGGILSLGAVLGNDNSKTDRLEIAGHASGITYVAVTNEGGSGDKTLEGVQIISTDSSDKNAFIQKGRIVAGSYDYRLKQGTVSGLNTNKWYLTSQMDNQESKQMSNQESTQMSSRR
fold change of coprecipitated amount with Cdc42-G12V (GTPγS) against without: 1.2 fold

— article PMC2213524 (The Journal of Experimental Medicine, 2000)
